Laboratory results: the supplement of paper PMC10724198
± gives the standard deviation of the averaged measurements.

How the values were obtained:
Saccharomyces cerevisiae [1] = experiment: protein stability index of tFT-peptide fusion (C-terminal peptide) (PSI (0-1 scale)); higher = more stable (slower turnover); conditions: genetic background: wild type; temperature: 30 C
Saccharomyces cerevisiae [2] = experiment: as above
Description: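 MPS profiling in S. cerevisiae of the tFT-X12 degron library: putative degron peptides plus stable controls, 12 aa, fused to the C-terminus of a sfGFP-mCherry timer. Cells are FACS-sorted into 8 mCherry/sfGFP bins and deep-sequenced. PSI runs from 0 (unstable) to 1 (stable). Backgrounds are wild type, das1Δ and doa10Δ at 30 °C, and wild type, das1Δ, cdc34-1 and cdc53-1 at 37 °C; 2-3 technical replicates each.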

[3] = genetic background: cdc34-1, temperature: 37 C
[4] = genetic background: cdc53-1, temperature: 37 C
[5] = genetic background: das1 deletion, temperature: 30 C
[6] = genetic background: das1 deletion, temperature: 37 C
[7] = genetic background: doa10 deletion, temperature: 30 C
[8] = genetic background: wild type, temperature: 30 C
[9] = genetic background: wild type, temperature: 37 C
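Note: PSI is a weighted mean of sequencing reads over stability bins, variants kept only with over 10 reads, mCherry proximal and sfGFP distal, peptide attached via GGGS linker.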

Sequence | protein stability index (Saccharomyces cerevisiae [1]) | protein stability index (Saccharomyces cerevisiae [2]; [3]) | protein stability index (Saccharomyces cerevisiae [2]; [4]) | protein stability index (Saccharomyces cerevisiae [2]; [5]) | protein stability index (Saccharomyces cerevisiae [2]; [6]) | protein stability index (Saccharomyces cerevisiae [2]; [7]) | protein stability index (Saccharomyces cerevisiae [2]; [8]) | protein stability index (Saccharomyces cerevisiae [2]; [9])
LIRDLLYMAVLV | 0.38 ± 0.019 | 0.249 ± 0.015 | 0.258 ± 0.016 | 0.295 ± 0.019 | 0.357 ± 0.018 | 0.32 ± 0.0083 | 0.281 ± 0.039 | 0.329 ± 0.0044
LISRLVLVFVIP | 0.38 ± 0.011 | 0.3804 ± 0.00059 | 0.443 ± 0.012 | 0.287 ± 0.032 | 0.529 ± 0.0056 | 0.284 ± 0.021 | 0.272 ± 0.026 | 0.4696 ± 0.0045
LIVCVKAITIVS | 0.0363 ± 0.015 | 0.0266 ± 0.0046 | 0.0452 ± 0.011 | 0.0357 ± 0.0096 | 0.0917 ± 0.019 | 0.0226 ± 0.0029 | 0.0194 ± 0.0031 | 0.0521 ± 0.031
LKCFLVLTFWFS | 0.263 ± 0.0049 | 0.187 ± 0.045 | 0.231 ± 0.012 | 0.222 ± 0.028 | 0.367 ± 0.018 | 0.184 ± 0.021 | 0.194 ± 0.027 | 0.3 ± 0.0095
LLHFVLYFLSCT | 0.456 ± 0.018 | 0.51 ± 0.057 | 0.548 ± 0.0012 | 0.442 ± 0.03 | 0.5554 ± 0.0051 | 0.42 ± 0.03 | 0.434 ± 0.01 | 0.549 ± 0.012
LLHQSVHSHIPP | 0.534 ± 0.052 | 0.637 ± 0.0097 | 0.72 ± 0.013 | 0.638 ± 0.022 | 0.733 ± 0.021 | 0.641 ± 0.018 | 0.641 ± 0.024 | 0.6911 ± 0.0067
LLILSLLVLSSR | 0.326 ± 0.0076 | 0.244 ± 0.022 | 0.348 ± 0.024 | 0.241 ± 0.021 | 0.42 ± 0.0046 | 0.2034 ± 0.00063 | 0.229 ± 0.036 | 0.37 ± 0.011
LLLCVVLVSVFG | 0.18 ± 0.0041 | 0.0374 ± 0.0057 | 0.0791 ± 0.044 | 0.122 ± 0.025 | 0.174 ± 0.02 | 0.0854 ± 0.0049 | 0.102 ± 0.023 | 0.134 ± 0.027
LLLFSFAALANF | 0.347 ± 0.0064 | 0.539 ± 0.059 | 0.545 ± 0.017 | 0.398 ± 0.022 | 0.5592 ± 0.0013 | 0.245 ± 0.0066 | 0.283 ± 0.018 | 0.466 ± 0.02
LLLFTPFYLLLR | 0.305 ± 0.011 | 0.0987 ± 0.033 | 0.0767 ± 0.0017 | 0.218 ± 0.021 | 0.27 ± 0.0065 | 0.525 ± 0.015 | 0.188 ± 0.037 | 0.219 ± 0.016
LLLPVFRFFFVN | 0.203 ± 0.04 | 0.468 ± 0.032 | 0.632 ± 0.065 | 0.554 ± 0.026 | 0.672 ± 0.021 | 0.0849 ± 0.023 | 0.109 ± 0.007 | 0.143 ± 0.0049
LLRFFPCFLGVN | 0.484 ± 0.022 | 0.653 ± 0.018 | 0.6962 ± 0.0039 | 0.657 ± 0.043 | 0.701 ± 0.012 | 0.43 ± 0.023 | 0.425 ± 0.032 | 0.579 ± 0.021
LLTAARAQLFAV | 0.503 ± 0.046 | 0.65 ± 0.0086 | 0.704 ± 0.029 | 0.578 ± 0.016 | 0.7 ± 0.022 | 0.457 ± 0.013 | 0.477 ± 0.019 | 0.6168 ± 0.0014
LLVSVVFVSRFF | 0.387 ± 0.053 | 0.378 ± 0.024 | 0.465 ± 0.075 | 0.272 ± 0.038 | 0.514 ± 0.0092 | 0.213 ± 0.0049 | 0.251 ± 0.035 | 0.444 ± 0.006
LLWALGLVLVEG | 0.377 ± 0.029 | 0.152 ± 0.033 | 0.193 ± 0.026 | 0.217 ± 0.022 | 0.2919 ± 0.0014 | 0.171 ± 0.0078 | 0.204 ± 0.029 | 0.281 ± 0.015
LNLACCWFVRCR | 0.349 ± 0.03 | 0.311 ± 0.035 | 0.339 ± 0.011 | 0.253 ± 0.035 | 0.4215 ± 0.00083 | 0.2269 ± 0.00044 | 0.261 ± 0.021 | 0.399 ± 0.015
LNSSVLRLRFFV | 0.2643 ± 0.0019 | 0.542 ± 0.027 | 0.739 ± 0.063 | 0.607 ± 0.037 | 0.756 ± 0.04 | 0.0882 ± 0.011 | 0.098 ± 0.024 | 0.152 ± 0.041
LPLCGLLLFLFF | 0.435 ± 0.0059 | 0.472 ± 0.024 | 0.5394 ± 0.0043 | 0.433 ± 0.024 | 0.5302 ± 0.0025 | 0.42 ± 0.024 | 0.42 ± 0.015 | 0.492 ± 0.022
LPLQPPPPVCLP | 0.376 ± 0.022 | 0.65583 ± 3.7e-05 | 0.7163 ± 0.0065 | 0.629 ± 0.024 | 0.7199 ± 0.0036 | 0.634 ± 0.031 | 0.644 ± 0.018 | 0.69 ± 0.011
LPPFGLFLFVFI | 0.366 ± 0.018 | 0.437 ± 0.034 | 0.466 ± 0.0094 | 0.31 ± 0.044 | 0.517 ± 0.0074 | 0.274 ± 0.008 | 0.285 ± 0.029 | 0.498 ± 0.01

Sequence | protein stability index (Saccharomyces cerevisiae [1]) | protein stability index (Saccharomyces cerevisiae [2]; [3]) | protein stability index (Saccharomyces cerevisiae [2]; [4]) | protein stability index (Saccharomyces cerevisiae [2]; [5]) | protein stability index (Saccharomyces cerevisiae [2]; [6]) | protein stability index (Saccharomyces cerevisiae [2]; [7]) | protein stability index (Saccharomyces cerevisiae [2]; [8]) | protein stability index (Saccharomyces cerevisiae [2]; [9])
LPPSTFLLHFLL | 0.317 ± 0.0077 | 0.667 ± 0.046 | 0.714 ± 0.011 | 0.656 ± 0.013 | 0.744 ± 0.0099 | 0.218 ± 0.018 | 0.232 ± 0.026 | 0.415 ± 0.0062
LPTGLKTFLIAF | 0.461 ± 0.02 | 0.481 ± 0.0085 | 0.485 ± 0.031 | 0.414 ± 0.025 | 0.541 ± 0.026 | 0.374 ± 0.0094 | 0.405 ± 0.027 | 0.519 ± 0.0071
LPVPARPFPPSS | 0.714 ± 0.0095 | 0.662 ± 0.027 | 0.713 ± 0.0083 | 0.684 ± 0.024 | 0.711 ± 0.014 | 0.705 ± 0.031 | 0.688 ± 0.021 | 0.6907 ± 0.0012
LQSYVSRLVRLS | 0.295 ± 0.015 | 0.618 ± 0.082 | 0.745 ± 0.027 | 0.653 ± 0.041 | 0.7356 ± 0.00043 | 0.191 ± 0.0033 | 0.186 ± 0.036 | 0.359 ± 0.055
LRFFLPFLLSLP | 0.2418 ± 0.0021 | 0.519 ± 0.043 | 0.596 ± 0.015 | 0.55 ± 0.036 | 0.6588 ± 0.0031 | 0.158 ± 0.0035 | 0.164 ± 0.022 | 0.292 ± 0.0041
LRFSLLRVGWLC | 0.434 ± 0.0087 | 0.652 ± 0.053 | 0.681 ± 0.017 | 0.58 ± 0.0099 | 0.732 ± 0.022 | 0.28 ± 0.0089 | 0.336 ± 0.037 | 0.561 ± 0.011
LRGIVSVWILRA | 0.249 ± 0.025 | 0.501 ± 0.034 | 0.56 ± 0.0093 | 0.441 ± 0.017 | 0.605 ± 0.0076 | 0.149 ± 0.0028 | 0.148 ± 0.0039 | 0.282 ± 0.0057
LRLLSLIPPLSC | 0.467 ± 0.0065 | 0.494 ± 0.022 | 0.535 ± 0.05 | 0.381 ± 0.039 | 0.53 ± 0.016 | 0.34 ± 0.011 | 0.385 ± 0.026 | 0.52 ± 0.011
LRSPCALVLLLI | 0.336 ± 0.0096 | 0.495 ± 0.022 | 0.5317 ± 0.0035 | 0.376 ± 0.029 | 0.556 ± 0.0056 | 0.213 ± 0.0037 | 0.237 ± 0.024 | 0.441 ± 0.0051
LSAVISLRIQLS | 0.449 ± 0.021 | 0.595 ± 0.093 | 0.603 ± 0.051 | 0.518 ± 0.032 | 0.546 ± 0.0071 | 0.3636 ± 0.0016 | 0.379 ± 0.04 | 0.4919 ± 0.0018
LSFFICSFFFVL | 0.408 ± 0.013 | 0.514 ± 0.045 | 0.556 ± 0.014 | 0.456 ± 0.03 | 0.5798 ± 0.0013 | 0.344 ± 0.006 | 0.361 ± 0.021 | 0.5113 ± 0.0012
LSFLSLIFSICY | 0.461 ± 0.022 | 0.43162 ± 0.0004 | 0.449 ± 0.054 | 0.356 ± 0.021 | 0.526 ± 0.066 | 0.355 ± 0.0012 | 0.333 ± 0.037 | 0.474 ± 0.012
LSGDIPWSFVPV | 0.738 ± 0.033 | 0.743 ± 0.04 | 0.766 ± 0.046 | 0.654 ± 0.011 | 0.787 ± 0.02 | 0.673 ± 0.028 | 0.677 ± 0.031 | 0.75756 ± 0.0002
LSIGCRCLWGWF | 0.465 ± 0.051 | 0.718 ± 0.029 | 0.7548 ± 0.004 | 0.631 ± 0.013 | 0.762 ± 0.022 | 0.577 ± 0.009 | 0.5967 ± 0.0059 | 0.708 ± 0.026
LSLCPVHRLLVL | 0.498 ± 0.03 | 0.558 ± 0.02 | 0.632 ± 0.032 | 0.481 ± 0.025 | 0.624 ± 0.007 | 0.358 ± 0.0063 | 0.379 ± 0.034 | 0.5327 ± 0.0015
LSLSPRLPRLVA | 0.283 ± 0.038 | 0.613 ± 0.015 | 0.659 ± 0.018 | 0.537 ± 0.014 | 0.663 ± 0.0015 | 0.156 ± 0.0087 | 0.197 ± 0.023 | 0.377 ± 0.026
LSRFGSTCPSGL | 0.724 ± 0.0079 | 0.72 ± 0.038 | 0.7696 ± 0.0062 | 0.642 ± 0.011 | 0.765 ± 0.032 | 0.6358 ± 0.0032 | 0.638 ± 0.012 | 0.7477 ± 0.0031
LSRHLILFIVIR | 0.272 ± 0.036 | 0.0962 ± 0.042 | 0.0846 ± 0.02 | 0.172 ± 0.014 | 0.2805 ± 0.0024 | 0.289 ± 0.019 | 0.174 ± 0.019 | 0.2008 ± 0.00073
LSVYFSLSLCVS | 0.448 ± 0.02 | 0.363 ± 0.014 | 0.451 ± 0.0063 | 0.384 ± 0.025 | 0.462 ± 0.011 | 0.392 ± 0.0084 | 0.399 ± 0.017 | 0.429 ± 0.017
